Measured values published in US20070101449A1.
“And” between values parts separate entries of the source, which are not always exact repeats. Equal entries are not always repeated.

Key:
[1] = biological target: APP695-derived polypeptide having the modified sequence NFEV at the β secretase cleavage site (UniProt P05067); test: cell-based or functional assay
[2] = biological target: APP695-derived polypeptide carrying the Swedish mutant NLDA at the β secretase cleavage site (UniProt P05067); test: cell-based or functional assay

In the case of “human β secretase (from UniProt P56817 46-501) (enzyme)”, the levels of Aβ (IP/Western blot of conditioned media of transfected HEK293T cells) (fold over wild-type KMDA) [1] is reported as 15 and 20 and the levels of Aβ (IP/Western blot of conditioned media of transfected HEK293T cells) (fold over wild-type KMDA) [2] is reported as 15 and 20.
